Measured values taken from patent publication US20240317845A1 (NINGBO SANSHENG BIOLOGICAL TECHNOLOGY, published 2024).

Experiments:
[1] = target: T1, 6-25 fragment of inhibin α-subunits coupled to chicken ovalbumin (OVA) (porcine (fragment said to be 100% …, UniProt P01012 2-386, chemically coupled to chicken ovalbumin (OVA))); assay: indirect ELISA, plate coated with 6-25 fragment-OVA, culture supernatant, replicate 1
T1 construct: also called antigenic peptide; 6-25 fragment of inhibin a subunits
Procedure: (§1) The 6-25 fragment of inhibin α-subunits coupled to chicken ovalbumin (OVA) were diluted to a sodium bicarbonate solution having a pH9.6 at a concentration of 10 μg/ml, and 100 μl per well was added to the microtiter plate (96 well plate). The plate was set aside overnight at 2-8° C. overnight, and taken out for washing and then patted dry next day, 5% BSA was added into the plate to block, 200 μl per well, and incubated at 37° C. for 1 h;
(§2) The plate was washed and patted dry. 100 μl of the fused culture supernatant was taken under aseptical conditions, added to the microtiter plate, and incubated at 37° C. for 1 h;
(§3) After washing the plate, chromogenic solution was added into the plate, 100 μl per well, and incubated at 37° C. for 5-10 minutes. 50 μl of stop solution was added into the plate, and the absorbance value was read at a wavelength of 460 nm.

[2] = target: T1, 6-25 fragment of inhibin α-subunits …; assay: indirect ELISA, plate coated with 6-25 fragment-OVA, culture supernatant, replicate 2
Procedure: as §1, §2, §3

T1 sequence (peptide, as listed by the source limits assumed, chain 1 of 2): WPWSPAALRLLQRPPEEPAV
T1 sequence (P01012 2-386 limits assumed, chain 2 of 2): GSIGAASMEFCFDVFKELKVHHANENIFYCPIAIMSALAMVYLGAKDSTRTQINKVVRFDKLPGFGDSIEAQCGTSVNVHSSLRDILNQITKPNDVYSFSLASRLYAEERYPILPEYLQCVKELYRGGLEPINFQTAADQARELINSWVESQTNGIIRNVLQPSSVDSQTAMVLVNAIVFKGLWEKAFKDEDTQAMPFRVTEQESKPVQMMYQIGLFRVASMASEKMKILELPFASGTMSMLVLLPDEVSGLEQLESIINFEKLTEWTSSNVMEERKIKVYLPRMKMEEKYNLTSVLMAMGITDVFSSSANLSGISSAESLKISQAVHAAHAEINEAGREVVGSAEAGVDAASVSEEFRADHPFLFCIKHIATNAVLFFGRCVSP

B1: anti-inhibin monoclonal antibody 1E5 secreted by hybridoma cell line 1E57 (antibody, V domains shown)
VH: EVKLVESGPELKKPGETVKISCKASGYTFTDYSMHWVKQAPGKGLKWMGWINTETGEPTYADDFKGRFAFSLETSASTAYLQINNLKNEDTATYFCAYYGPPTYSLDYWGQGASVTVSS
VL: DIQMTQTTSSLSASLGDRVTISCRASQGISNYLNWYQQKPDGTVKLLIYYTSRLLSGVPSRFSGSGSGTDYSLTISNLEQEDIATYFCQQGYTLPFTFGSGTKLEIK
notes: Mouse hybridoma antibody; Tested as culture supernatant, as ascites and as Protein G purified ascites antibody; also called 1E57 culture supernatant; ascites-derived monoclonal antibody 1E5
absorbance at dilution ratio 200 [1]: 3.31 absorbance | absorbance at dilution ratio 400 [1]: 2.8 absorbance | absorbance at dilution ratio 800 [1]: 2.92 absorbance | absorbance at dilution ratio 1600 [1]: 2.28 absorbance | absorbance at dilution ratio 3200 [1]: 1.69 absorbance | absorbance at dilution ratio 6400 [1]: 1.28 absorbance | absorbance at dilution ratio 12800 [1]: 0.823 absorbance | absorbance at dilution ratio 25600 [1]: 0.613 absorbance | absorbance at dilution ratio 51200 [1]: 0.359 absorbance | absorbance at dilution ratio 102400 [1]: 0.263 absorbance | absorbance at dilution ratio 200 [2]: 3.25 absorbance | absorbance at dilution ratio 400 [2]: 2.36 absorbance | absorbance at dilution ratio 800 [2]: 2.08 absorbance | absorbance at dilution ratio 1600 [2]: 1.9 absorbance | absorbance at dilution ratio 3200 [2]: 1.43 absorbance | absorbance at dilution ratio 6400 [2]: 0.831 absorbance | absorbance at dilution ratio 12800 [2]: 0.648 absorbance | absorbance at dilution ratio 25600 [2]: 0.398 absorbance | absorbance at dilution ratio 51200 [2]: 0.256 absorbance | absorbance at dilution ratio 102400 [2]: 0.189 absorbance
